Experimental data: publication PMC6450946

Experiments:
[1] = biological target: SRM-HtrM fusion protein (H. marismortui SRM and HtrM joined by a flexible linker) expressed in H. salinarum (Haloarcula marismortui); experiment: SDS-PAGE and Western blot; lysate of transformed H. salinarum (cells lysed in distilled water, sonicated); detection with Penta-His HRP conjugate
[2] = biological target: HtrI, cognate transducer of SRI from Haloarcula marismortui, as part of the HmSRI-HtrI fusion protein (Haloarcula marismortui)
[3] = biological target: HtrM, cognate transducer of SRM from Haloarcula marismortui, as the C-terminal part of the SRM-HtrM fusion protein (Haloarcula marismortui)

SRM-HtrM fusion protein (H. marismortui SRM and HtrM joined by a flexible linker) expressed in H. salinarum
stoichiometry N [1]: 2

B1: Sensory rhodopsin I from Haloarcula marismortui, as part of the HmSRI-HtrI fusion protein (receptor)
chain: MDAVSVVYGITAAGFAVGVAIVGFLYASLEGSDERPILAALALIPGVAGISYVAMVFGIGTVTIGETTLVGFRYLDWVVTTPLLVGFIGYTAGASRRAIFGVMAADALMILAGVGAVVAAGTLKWALFGVSAVFHISLFAYLYLIFPRSVPDDPQRIGLFSLLKNHVGLLWIAYPLVWLAGPEGLGFATYVGVSITYAFLDLLAKVPYVYFFYARRQVFATKLLRDSGDTTVTPAD
Photocycle kinetics (Tau value) of detergent-solubilized HmSRI-HtrI fusion, acidic (pH 6.1-6.5) [2]: 2.38 s
Photocycle kinetics (Tau value) of detergent-solubilized HmSRI-HtrI fusion, alkaline (pH 7.6-7.9) [2]: 4.49 s

B2: Sensory rhodopsin SRM from Haloarcula marismortui, as the N-terminal part of the SRM-HtrM fusion protein (receptor)
chain: MAQEIVWYGAGAGAFFVSAVVFVWFAATRGNIRSSFYYLPPIHTSVAGAAYVAMALIAGGQLGDTVSITTLRFADWIVSTPIITYYLARLAGVDTQTRRLAVAANVVMIGVGYGFVSMSGSLRWIAFAVSTVAFIGLLYLYIKTFARKINAATASVRSLFQSLRDLTVVTWSLYPVVYFLGPLGTGIIQAPDLNFLVAVLDTIAKVGFMSILLVRYNSVETFVDSWSVAPAK
Photocycle kinetics (Tau value) of detergent-solubilized HmSRM-HtrM fusion, acidic (pH 6.1-6.5) [3]: 4.05 s
Photocycle kinetics (Tau value) of detergent-solubilized HmSRM-HtrM fusion, alkaline (pH 7.6-7.9) [3]: 5.62 s
